In patent US9512196B2, “Short-form human MD-2 as a negative regulator of toll-like receptor 4 signaling” (Cedars-Sinai Medical Center, priority 2008, dated 2016):

Assays:
[1] = tested on: MD-2 tyrosine phosphorylation; experiment: LPS-induced MD-2 tyrosine phosphorylation in HEK293 cells (immunoprecipitation, anti-phosphotyrosine immunoblot); assay type: cell-based, human; settings: pretreatment 1-2 h before LPS; HEK293 cells overexpressing TLR4 and MD-2
Experimental: 24 h later cells were left untreated (lanes 1 and 2) or stimulated with LPS (lanes 3-7). Flag-tagged proteins were immunoprecipitated with an anti-Flag Ab in cell lysates and analyzed by SDS-PAGE and immunoblotted with an anti-phosphotyrosine Ab (top panel), or an anti-Flag Ab (middle and lower panels). (B) HEK293 cells were transiently transfected with Flag-TLR4 and Flag-MD-2 (lanes 1-5). 24 hrs later, cells were pretreated for 2 hrs with herbimycin A at 0.5 μg/ml (lane 3) or 2.5 μg/ml (lane 4), or for 1 hr with 2 μM cytochalasin D (lane 5) prior to stimulation with LPS for 5 mins.
(A) HEK293 cells were transiently transfected with TLR4 and Myc-MD-2 (lanes 1-6). […] Myc-tagged proteins were immunoprecipitated with an anti-Myc Ab in cell lysates, and analyzed by SDS-PAGE and immunoblotted with an anti-phosphotyrosine Ab (top panel), or an anti-Myc Ab (lower panel). […] Cells were left untreated or stimulated with LPS for 6 hours and luciferase activity measured in cell lysates and expressed as fold induction relative to untreated cells.
Tyrosine phosphorylation of numerous proteins is induced upon stimulation with LPS and indeed the LPS receptor, TLR4, is itself tyrosine phosphorylated. […] Proteins were immunoprecipitated from cell extracts with an anti-Flag Ab and analyzed by immunoblotting with an Ab that detects proteins phosphorylated on phosphotyrosine residues. […]

TLR4 = target: T1, TLR4 (Homo sapiens, UniProt O00206); experiment: NF-κB luciferase reporter in HEK293 cells expressing TLR4, LPS stimulation; assay type: cell-based; settings: for Ability to activate NF-κB upon LPS stimulation compared to wild-type MD-2: construct transfected into HEK293 TLR4/NF-κB reporter cells, LPS 6 h; for Decrease in NF-κB activity upon LPS stimulation: versus wild-type MD-2
T1 construct: expressed in transfected cells; host or cells: HEK293
T1 sequence (O00206 24-839): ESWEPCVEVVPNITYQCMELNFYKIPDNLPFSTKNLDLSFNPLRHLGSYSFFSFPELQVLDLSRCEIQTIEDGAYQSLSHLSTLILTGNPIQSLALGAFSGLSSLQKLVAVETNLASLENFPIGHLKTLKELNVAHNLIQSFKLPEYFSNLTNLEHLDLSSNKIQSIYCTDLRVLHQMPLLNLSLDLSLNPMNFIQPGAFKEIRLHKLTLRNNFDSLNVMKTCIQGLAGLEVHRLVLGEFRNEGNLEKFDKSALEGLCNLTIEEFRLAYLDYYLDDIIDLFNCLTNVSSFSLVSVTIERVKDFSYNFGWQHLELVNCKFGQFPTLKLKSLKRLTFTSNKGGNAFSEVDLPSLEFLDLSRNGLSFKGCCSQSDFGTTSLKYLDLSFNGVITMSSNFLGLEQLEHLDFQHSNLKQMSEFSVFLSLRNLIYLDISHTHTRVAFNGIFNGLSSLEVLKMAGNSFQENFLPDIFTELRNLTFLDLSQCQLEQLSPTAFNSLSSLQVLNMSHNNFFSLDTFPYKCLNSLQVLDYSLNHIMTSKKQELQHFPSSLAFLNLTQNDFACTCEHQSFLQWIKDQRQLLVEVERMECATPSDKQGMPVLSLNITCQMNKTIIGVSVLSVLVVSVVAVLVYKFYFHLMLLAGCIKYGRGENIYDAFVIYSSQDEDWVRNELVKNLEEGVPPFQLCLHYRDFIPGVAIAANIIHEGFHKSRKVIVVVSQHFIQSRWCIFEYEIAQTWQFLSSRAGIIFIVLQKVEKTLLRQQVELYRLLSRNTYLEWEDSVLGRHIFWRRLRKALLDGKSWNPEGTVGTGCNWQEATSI
Experimental: (A) HEK-293 cells stably transfected with TLR4 and a NF-κB reporter gene were treated with supernatants containing either MD-2 or MD-2s as described in the examples herein. Cells were left untreated or stimulated with LPS for 24 h. Mean relative stimulation of luciferase activity±S.D. for a representative experiment, each performed in triplicate, is shown. (B) HEK-293 cells stably transfected with TLR4 and a NF-κB reporter gene were transiently transfected with plasmids encoding for either MD-2, MD-2s or CD14 as shown. 24 h later, cells were left untreated or stimulated with LPS (250 ng/ml) for 6 h. Mean relative stimulation of luciferase activity±SD for a representative experiment, each performed in triplicate, is shown. (C) and (D) Supernatants were also collected and measured for IL-8 secretion.
(A) HEK293 cells were transiently transfected with plasmids encoding TLR4 and a NF-κB reporter gene in combination with MD-2 and MD-2s as indicated. 24 h later, cells were left untreated or incubated with LPS (250 ng/ml) for 5 h. Mean relative stimulation of luciferase activity±S.D. for a representative experiment from three separate experiments, each performed in triplicate, is shown. (B) HEK-293 cells stably transfected with TLR4 and a NF-κB reporter gene were treated with supernatants containing either MD-2 and MD-2s as depicted and left untreated or incubated with LPS for 24 h. Mean relative stimulation of luciferase activity±S.D. for a representative experiment from three separate experiments, each performed in triplicate, is shown.
HEK293 cells were transiently transfected with the expression vectors noted in combination with constructs encoding the NF-κB- and IL-8-luciferase reporter gene, and either the β-galactosidase gene or the phRL-TK report gene to normalize for transfection efficiency. In all cases, total DNA concentration was kept constant by supplementation with empty vector control. Following overnight incubation, cells were stimulated for 6 hours with 50 ng/ml LPS and then lysed, and luciferase activity was measured as described previously (Ohta et al. (2004) BIOCHEM BIOPHYS RES COMMUN 323, 1103-1108). Data are shown as mean±SD of three or more independent experiments and are reported as a percentage of LPS-stimulated NF-κB and IL-8 promoter activity, or relative luciferase activity.
The requirement for MD-2s in LPS mediated NF-κB activation was assessed. It has been shown that the soluble form of wild-type MD-2 confers LPS responsiveness to cells expressing TLR4; therefore, it was investigated if soluble MD-2s was also bioactive. Culture supernatants were obtained from HEK293 cells transiently expressing control vector, MD-2, or MD-2s, and incubated with HEK293 cells stably transfected with TLR4 and an NF-κB-dependent luciferase reporter gene.
MD-2s was tested to see if it needed to be transiently expressed in TLR4 reporter cells in order to mediate NF-κB activation following LPS stimulation. HEK293 cells stably transfected with TLR4 and an NF-κB-dependent luciferase reporter gene were transiently transfected with plasmids encoding CD14 in combination with either MD-2 or MD-2s, and subsequently treated with LPS.
HEK293 cells were transiently transfected with plasmids encoding CD14, TLR4, and wild-type MD-2 in conjunction with a plasmid encoding the NF-κB-dependent luciferase reporter gene in the presence or absence of a plasmid encoding MD-2s. […] Furthermore, we assessed the inhibitory role of soluble MD-2s following LPS stimulation. HEK293 cells stably transfected with TLR4 and an NF-κB-dependent luciferase reporter gene were incubated with supernatants obtained from HEK293 cells transiently expressing a constant amount of MD-2 with increasing concentrations of MD-2s.

Molecule | Effect on LPS-induced MD-2 tyrosine phosphorylation [1] | Ability to activate NF-κB upon LPS stimulation compared to wild-type MD-2 (TLR4) | Decrease in NF-κB activity upon LPS stimulation (TLR4) [%]
CO[C@H]1[C@@H](OC)C[C@H](C)[C@@H](OC)C2=CC(=O)C=C(NC(=O)/C(C)=C/C=C\[C@H](OC)[C@@H](OC(N)=O)/C(C)=C/[C@@H]1C)C2=O [herbimycin A] | significantly inhibited | – | –
C=C1[C@@H](C)[C@H]2[C@H](Cc3ccccc3)NC(=O)[C@]23[C@H](OC(C)=O)/C=C/[C@@](C)(O)C(=O)[C@@H](C)C/C=C/[C@H]3[C@@H]1O [cytochalasin D] | significantly inhibited | – | –
MD-2-Y22F: human MD-2 with tyrosine 22 mutated to phenylalanine (protein, Tyrosine to phenylalanine mutation at position 22 of human MD-2, human MD-2 with tyrosine 22 mutated to phenylalanine) MLPFLFFSTLFSSIFTEAQKQFWVCNSSDASISYTYCDKMQYPISINVNPCIELKRSKGLLHIFYIPRRDLKQLYFNLYITVNTMNLPKRKEVICRGSDDDYSFCRALKGETVNTTISFSFKGIKFSKGKYKCVVEAISGSPEEMLFCLEFVILHQPNSN | – | significantly less potent | 50
MD-2-Y22FY131F: human MD-2 double mutant, tyrosines 22 and 131 mutated to phenylalanine (protein, Tyrosine to phenylalanine mutation at position 22 and 131 of human MD-2, human MD-2 double mutant, tyrosines 22 and 131 mutated to phenylalanine) MLPFLFFSTLFSSIFTEAQKQFWVCNSSDASISYTYCDKMQYPISINVNPCIELKRSKGLLHIFYIPRRDLKQLYFNLYITVNTMNLPKRKEVICRGSDDDYSFCRALKGETVNTTISFSFKGIKFSKGKFKCVVEAISGSPEEMLFCLEFVILHQPNSN | – | do not activate NF-κB as strongly as wild-type MD-2 | –
MD-2-Y131F: human MD-2 with tyrosine 131 mutated to phenylalanine (protein, Tyrosine to phenylalanine mutation at position 131 of human MD-2, human MD-2 with tyrosine 131 mutated to phenylalanine) MLPFLFFSTLFSSIFTEAQKQYWVCNSSDASISYTYCDKMQYPISINVNPCIELKRSKGLLHIFYIPRRDLKQLYFNLYITVNTMNLPKRKEVICRGSDDDYSFCRALKGETVNTTISFSFKGIKFSKGKFKCVVEAISGSPEEMLFCLEFVILHQPNSN | – | significantly less potent | 50
